The nature of this data set: label from the status in PepcDB records.
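Note: failed if final PepcDB status was selected cloned or expressed and not failed if soluble or beyond.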

With “MEGALAANWSAEAANASAAPPGAEGNRTAGPPRRNEALARVEVAVLCLILLLALSGNACVLLALRTTRQKHSRLFFFMKHLSIADLVVAVFQVLPQLLWDITFRFYGPDLLCRLVKYLQVVGMFASTYLLLLMSLDRCLAICQPLRSLRRRTDRLAVLATWLGCLVASAPQVHIFSLREVADGVFDCWAVFIQPWGPKAYITWITLAVYIVPVIVLATCYGLISFKIWQNLRLKTAAAAAAEAPEGAAAGDGGRVALARVSSVKLISKAKIRTVKMTFIIVLAFIVCWTPFFFVQMWSVWDANAPKEASAFIIVMLLASLNSCCNPWIYMLFTGHLFHELVQRFLCCSASYLKGRRLGETSASKKSNSSSFVLSHRSSSQRSCSQPSTA”, the protein production result is “not failed”.

Take “MEGERMNAFPSTMMDEELNLWDFLERAAALFGRKEVVSRLHTGEVHRTTYAEVYQRARRLMGGLRALGVGVGDRVATLGFNHFRHLEAYFAVPGMGAVLHTANPRLSPKEIAYILNHAEDKVLLFDPNLLPLVEAIRGELKTVQHFVVMDEKAPEGYLAYEEALGEEADPVRVPERAACGMAYTTGTTGLPKGVVYSHRALVLHSLAASLVDGTALSEKDVVLPVVPMFHVNAWCLPYAATLVGAKQVLPGPRLDPASLVELFDGEGVTFTAGVPTVWLALADYLESTGHRLKTLRRLVVGGSAAPRSLIARFERMGVEVRQGYGLTETSPVVVQNFVKSHLESLSEEEKLTLKAKTGLPIPLVRLRVADEEGRPVPKDGKALGEVQLKGPWITGGYYGNEEATRSALTPDGFFRTGDIAVWDEEGYVEIKDRLKDLIKSGGEWISSVDLENALMGHPKVKEAAVVAIPHPKWQERPLAVVVPRGEKPTPEELNEHLLKAGFAKWQLPDAYVFAEEIPRTSAGKFLKRALREQYKNYYGGA”: the protein production entry is recorded as “not failed”. The value for “MEGESVKLSSQTLIQAGDDEKNQRTITVNPAHMGKAFKVMNELRSKQLLCDVMIVAEDVEIEAHRVVLAACSPYFCAMFTGDMSESKAKKIEIKDVDGQTLSKLIDYIYTAEIEVTEENVQVLLPAASLLQLMDVRQNCCDFLQSQLHPTNCLGIRAFADVHTCTDLLQQANAYAEQHFPEVMLGEEFLSLSLDQVCSLISSDKLTVSSEEKVFEAVISWINYEKETRLEHMAKLMEHVRLPLLPRDYLVQTVEEEALIKNNNTCKDFLIEAMKYHLLPLDQRLLIKNPRTKPRTPVSLPK” was “not failed”; that for “MEGKEEDVRVGANKFPERQPIGTSAQSDKDYKEPPPAPFFEPGELSSWSFWRAGIAEFIATFLFLYITVLTVMGVKRSPNMCASVGIQGIAWAFGGMIFALVYCTAGISGGHINPAVTFGLFLARKLSLTRALYYIVMQCLGAICGAGVVKGFQPKQYQALGGGANTVAHGYTKGSGLGAEIIGTFVLVYTVFSATDAKRNARDSHVPILAPLPIGFAVFLVHLATIPITGTGINPARSLGAAIIYNKDHSWDDHWVFWVGPFIGAALAALYHVVVIRAIPFKSRS” was “failed”; that for “MEGMDPLAVLAESRLLPLLTVRGGEDLLGLARVLEEEGVGALEITLRTEKGLEALKALRKSGLLLGAGTVRSPKEAEAALEAGAAFLVSPGLLEEVAALAQARGVPYLPGVLTPTEVERALALGLSALKFFPAEPFQGVRVLRAYAEVFPEVRFLPTGGIKEEHLPHYAALPNLLAVGGSWLLQGNLEAVRAKVRAAKALLSPQAPG” was “not failed”. The entry for “MEGNKSLVVAHAQRCVVLRFLKFPPNKKKTSEEILQHLQNIVDFGKNVMKDFLGENYVHCGEVVQLPLEFVKQLCLKIQCERPESRCDKDLDTFSGYAMCLPNLTRLQTFHFAEHRPILCVEIKPKCGFIPFSNDVTHEMKHKVCRYCMHQHLKVATGKWKKISKYCPLDLYSGNKQRMHFALRSLLQETQNNLRIFKNGELIYGCGDARSPVADLKELAHHLKPFFFPSNGLASGPHCTKAVIRELVHVITRVLLSSSEKARAGALRLGLQGPRVCEASPFSRSLHNQGKNTSEHSGLPKGCLLYKTLQVQMLDQLDIEGLYPLYKRVEQYLEEFPEERKTLQIDGPYDEVFYQKLLDLSTEDDGTVAFALTKVQQYRVAMTAKDCSIMIALSPCLEHHHHHH” is “failed”; for “MEGQENKVLFGLENVHYATYSETDGVITYDTPKPLPGGVEISVEPQGDMIKFYADNIVYYQAPNNQGYEGTLTIASIPEGFATDCLGEELDTVDGVLTEKSDAKPKPFALLFEFDGDVKSVRQVLYNCTASRPTVASSTLEHHHHHH” it is “not failed”. As for “MEHDERTHVPVELRAAGVVLLNERGDILLVQEKGIPGHPEKAGLWHIPSGAVEDGENPQDAAVREACEETGLRVRPVKFLGAYLGRFPDGVLILRHVWLAEPEPGQTLAPAFTDEIAEASFVSREDFAQLYAAGQIRMYQTKLFYADALREKGFPALPV”, the protein production result is on record as “not failed”. The value for “MEHPLIRIVILAVLAYVGYALLCFLVQRTIIYPGRSLSVAGQPPDLPDIHPLWLTTPYGHVESWFLPATGSVAGDRRPVVLFFHGNGEVIDVLPDQAEGFRRMGMHVMLVEYPGYGRSGGSPSEEGITAAAVAAYDELVRRSDTDSGRMIAFGRSLGCGAACALSLRRPLAALILQSPFTSTRPFARQMLLPGFLARDVFDNRKALESYGGAVLILHGTEDDIIPVGHGRELARTVRRGCLIELRCGHNDCPPDWLEFWRIIEGFLEQEGVSGRK” was “failed”; that for “MEIFFTILILTLVVSLSGVVTRILPFQVPLPLMQIALGAILAWPQFGLHVDFNPELFMVLFIPPLLFADGWKTPTREFLRHGREIIGLALVLVLITVVGIGYFIYWMVPGMPLIAAFALAAVLSPTDAVALSGIVGEGRIPKKLMGILQGEALMNDASGLVSLKFAVAIAMGTMVFTVSGATLEFVQVALGGLLAGVGVTWIFGKSLRVISRWSGDDAATQIVLLLLLPFASYLIAEHIGVSGILAAVAAGMTIGQSGVIRSAPLTMRMRANGVWSMLEFVFNGMVFIMLGLQLPDILETSVTQAELDPTVETWMLFTDIAIIYGALLLLRFSWLWVMRTYSVHIQKKRPMVFAEFSTRELWIASFAGVRGAITLAGVLSIPLLLTDGTAFPSRYQLVFIATGVILFSLLCGVLALPFLLRGVVVADKAAHAKEIRMARMAVAEVAIKSMHKMEERLAADREENIDEQVLKEVSARVIGNLRRRLINKDDPENGLLIENLERRFRLTALNSERAELYHLRATQQISNETLQKMLRDLDLMEALLIENE” was “failed”; that for “MEIHSERKKRLSLSLLFKIIKDTVWGFIDDSVMRLSASLAYATLFSIIPFLSLLVTVGVFFHMDLANQLYVQLQPIVGPEVTEALRSIIENAENTDSSRSAAFVSLGISILGATTIFAEIQSSLNSIWGIKAVPKKSWLKFIKNRILSFSIILVFAFILLITFTITNIIGELSQKFIFKYPEVADSLVKVVGIIINMSVTTIIFTLIFKILPDAKIKSKDVCIGAVVTTILLLIGQWGISFYIGIANVGTVYGAAAFMVVFVTWIYYSSIIIYTGAEFTKAWANEMGGKIFPDEYAVATKTIEIHEDKPIE” was “failed”. The value for “MEIILNSGGTFVILAAVVGFFMAWGIGANDVANAMGTSVGSKALTIKQAIIIAMIFEFAGAYLAGGEVTSTIRKGIIDASYFVDSPELLVYGMISALFAAATWLLIASALGWPVSTTHSIVGAIVGFAAVGVSTDAVEWGKVVGIVGSWIITPLISGIIAFIIFNSAQKLIFDTDKPLQQAKRWVPAYMFLAGFVLSLVTIKKGLKHIGLENVNLGFVNFEIKGAGGFYLAAIVAIIVAIIGKFFISRLKFDENLAKEAHYVNVEKVFAILMIVTACAMAFAHGSNDVANAIGPLAAVVSIVEHDGQIAAKSAIAWWILPLGGFGIVAGLALFGHKVIATIGQGITHLTPSRGFAAELAAASTVVIASGAGLPISTTQTLVGAVLGVGMARGIAAINLGVVRNIVVSWVITLPVGAGLSIVFFWIMQATFS” was “failed”.

“MEIINLTYIPLGVYNYYKSNNQEVKMQTIDISELELLTESENPVIVDVREDFEYNSGHVPNAKNIPLSQLEERYAEITDGTYLICQSGARSARACQYLSTKGIDTINISGGTIAWNGP”: the protein production entry was “failed”.

For “MEIKPGLSALVTGGASGIGRALCLALAEKGVFVTVADFSEEKGQETTSLVREANAKFHQGLSFPSAIFVKCDVTNRGDLLAAFDKHLATFGTLDICINNAGISTPLRFDKDDTDGSKSWKHTINVDLIAVVEGTQLAIKAMKAKQKPGVIINMGSAAGLYPMPVDPIYAASKAGVVLFTRSLAYYRRQGIRINVLCPEFIKTDLAEAIDASILESIGGYMSMDMLIKGAFELITDEKKAGACLWITKRRGLEYWPTPMEETKYLVGSSSRKRPSFKVSTKIEFPQSFEKMIVHTLSHKFRSATRIVRAPLQLPIGPHQVLLKIIYAGVNASDVNFSSGRYFTGGSPKLPFDAGFEGVGLIAAVGESVKNLEVGTPAAVMTFGAYSEYMIVSSKHVLPVPRPDPEVVAMLTSGLTALIALEKAGQMKSGETVLVTAAAGGTGQFAVQLAKLSGNKVIATCGGSEKAKLLKELGVDRVIDYKSENIKTVLKKEFPKGVNIIYESVGGQMFDMCLNALAVYGRLIVIGMISQYQGEKGWEPAKYPGLCEKILAKSQTVAGFFLVQYSQLWKQNLDKLFNLYALGKLKVGIDQKKFIGLNAVADAVEYLHSGKSTGKVVVCIDPAFEQKTSRL”, the protein production entry was “failed”. On to “MEISFTRVALLAAALFFVGCDQKPQPAKTHATEVTVLEGKTMGTFWRASIPGIDAKRSAELKEKIQTQLDADDQLLSTYKKDSALMRFNDSQSLSPWPVSEAMADIVTTSLRIGAKTDGAMDITVGPLVNLWGFGPEQQPVQIPSQEQIDAMKAKTGLQHLTVINQSHQQYLQKDLPDLYVDLSTVGEGYAADHLARLMEQEGISRYLVSVGGALNSRGMNGEGLPWRVAIQKPTDKENAVQAVVDINGHGISTSGSYRNYYELDGKRLSHVIDPQTGRPIEHNLVSVTVIAPTALEADAWDTGLMVLGPEKAKEVVRREGLAVYMITKEGDSFKTWMSPQFKSFLVSEKN”, for which the protein production entry is listed as “not failed”.

For “MEITIFGKGNMGQAIGHNFEIAGHEVTYYGSKDQATTLGEIVIMAVPYPALAALAKQYATQLKGKIVVDITNPLNFDTWDDLVVPADSSAAQELQQQLPDSQVLKAFNTTFAATLQSGQVNGKEPTTVLVAGNDDSAKQRFTRALADSPLEVKDAGKLKRARELEAMGFMQMTLAASEQIGWTGGFAVVK”, the protein production entry is given as “failed”. In the case of “MEIVFLGGAKEVGASCVLIKAGGKNILLDSGIRMKEDKLPNLQLLRELGGADVCLISHAHLDHIGSLPLIAREYPHIFFYTNQPTKDLIKVLLYDSLKIMDAKEDEIPIYAEKNVEDLLDRTITYGFNYTFEPLEGIKVTFFPAGHILGASMIFIQTQEGSVLYTGDFSTDKQLTVDKASIPKIRPDVVICESTYGDRLHTNRNYEEERLFNSIYEFISKGGKVLIPAFAIGRAQEIILILRNYMKKKKVEFNVFIDGMVREVIRVYKNNPTFLSSRYYKKVLKGEEIFLSDNIDIITDKKQREEIMSSSDPCVIISSSGMLTGGPSVFYAEKLVENQNALIAITGYQDEESPGRKLLELTELPESERKIELNGKEYEVKCKVEKYGLSAHADRDSILGFLAMLKPKTVVFAHGSEEAISQLSDMAIKEIESAVLIPQNGEMNTISIEKPRRQLSFFNVKKLSNIEPLNEENIKSLWEYLLESKQEANHITAEHAILIWNGKQFLERDEVNRVFELLKSSPYFEQNPRKPYLFRILSRTEVENKLKPKPMEQNKMRELAFEMFKDFGLYKVGMDNENVVVTFYFNFPHIANRLEDKIKEFEEKTLWKVEVNPNINLTYAQKYLQKLLEDEGVKLLKFSYNPVINAIVVKPNKEFDSMKELCSKFLDETGIELIFDIENKEDCTARLQNKDRMEQNKALLLIDLYFENEKDKVYKKSIKEGGKYIELSFVTPFVAEKYKDKLNELSQKTGWEIRISQTINQVEMVNILKDILAKYNIDLIKNPSIYPSIREVRIKLAGEIDSNIVNEIANEFYDRTGFYLKI”, the protein production entry was “failed”.

The record behind these values is a protein production outcome set (Wang et al. 2014).
